Reference: patent US20230346949A1, “A METHOD OF FORMING A CONJUGATE OF A SULFONAMIDE AND A POLYPEPTIDE” (SANOFI, priority 2019, published 2023)

Tests used:
[1] = Storage stability of the activated sulfonamide; type: physicochemical; conditions: acetonitrile solution under argon, 2 to 8° C.
Experimental: 32.5 g 2-[2-[2-[[2-[2-[2-[[2-[[4-(16-tert-butoxy-16-oxo-hexadecoxy)phenyl]sulfonylamino]-pyrimidine-5-carbonyl]amino]ethoxy]ethoxy]acetyl]amino]ethoxy]ethoxy]acetic acid (sticky syrup) was dissolved in 305 ml dry acetonitrile. 305 ml dry ethyl acetate under an argon layer, 16.25 g (63.4 mmol) N,N-disuccinimidylcarbonat and 3.25 g (26.6 mmol) dimethylaminopyridine was added under stirring at room temperature (25° C.). After 90 minutes, the solvent was distilled off using a rotary evaporator and the remaining oily product was dissolved in 1.5 liters of ethyl acetate. The ethyl acetate solution was extracted three times, each time with 300 ml 0.1 N HCl and 300 ml saturated NaCl solution. The solvent was distilled off using a rotary evaporator, leaving again an oily product. The oily product was dissolved in 0.5 liters of ethyl acetate, the precipitated NaCl was filtered off and the ethyl acetate was distilled off. Next, 0.5 liters of ethyl acetate was added and the solvent was distilled off using a rotary evaporator. […] Yield in the acetonitrile solution was calculated from HPLC data as 78% based on the amount of 2-[2-[2-[[2-[2-[2-[[2[[4-(16-tert-butoxy-16-oxo-hexadecoxy)phenyl]sulfonylamino]-pyrimidine-5-carbonyl]amino]ethoxy]ethoxy]acetyl]amino]ethoxy]ethoxy]acetic acid used. […]

[2] = molecular target: human insulin receptor isoform B (human) (UniProt P06213); experiment: cell-based or functional assay
[3] = molecular target: human insulin receptor isoform B (human) (UniProt P06213); experiment: SPA competition with 100 pM [125I]-human insulin, membranes of CHO cells overexpressing IR

Compound	stability in solution [1]	Autophosphorylation activity (relative to human insulin) [2]	Insulin-receptor binding affinity (relative to human insulin) (relative to human insulin) [3]
O=C(O)CCCCCCCCCCCCCCCOc1ccc(S(=O)(=O)Nc2ncc(C(=O)NCCOCCOCC(=O)NCCOCCOCC(=O)ON3C(=O)CCC3=O)cn2)cc1 [16-[4-[[5-[2-[2-[2-[2-[2-[2-(2,5-dioxopyrrolidin-1-yl)oxy-2-oxo-ethoxy]ethoxy]ethylamino]-2-oxo-ethoxy]ethoxy]ethylcarbamoyl]pyrimidin-2-yl]sulfamoyl]phenoxy]hexadecanoate]	less than 3 days	–	–
Ala(B25)-Insulin (ligand)	–	0.2	–
Ala(B25)Des(B30)-Insulin (ligand)	–	0.17	–
Glu(A14)Des(B30)-Insulin (ligand)	–	0.87	–
Glu(A14)Glu(B3)Ile(B16)Ile(B25)Des(B30)-Insulin (ligand)	–	0.01	–
Glu(A14)Glu(B3)Val(B16)Des(B30)-Insulin (ligand)	–	0.28	0.4
Glu(A14)Glu(B3)Val(B16)Val(B25)Des(B30)-Insulin (ligand)	–	0.02	–
Glu(A14)Glu(B16)His(B25)Des(B30)-Insulin (ligand)	–	0.07	0.01
Glu(A14)Gly(A21)Glu(B3)Ile(B16)Trp(B25)Des(B30)-Insulin (ligand)	–	0.13	0.12
Glu(A14)Gly(A21)Glu(B3)Ile(B16)Val(B25)Des(B30)-Insulin (ligand)	–	0.02	0.01
Glu(A14)Gly(A21)Glu(B3)Val(B16)Trp(B25)Des(B30)-Insulin (ligand)	–	0.19	0.21
Glu(A14)Gly(A21)Glu(B3)Val(B16)Val(B25)Des(B30)-Insulin (ligand)	–	0.01	0.01
Glu(A14)Gly(A21)Glu(B3)Val(B25)Des(B30)-Insulin (ligand)	–	0.03	0.02
Glu(A14)Gly(A21)Trp(B16)Des(B30)-Insulin (ligand)	–	0.38	0.63
Glu(A14)Gly(A21)Trp(B25)Des(B30)-Insulin (ligand)	–	0.37	–
Glu(A14)Gly(A21)Val(B16)Trp(B25)Des(B30)-Insulin (ligand)	–	0.23	0.17
Glu(A14)His(B16)Des(B30)-Insulin (ligand)	–	0.29	0.36
Glu(A14)His(B16)His(B25)Des(B30)-Insulin (ligand)	–	0.11	0.12

Compound	stability in solution [1]	Autophosphorylation activity (relative to human insulin) [2]	Insulin-receptor binding affinity (relative to human insulin) (relative to human insulin) [3]
Glu(A14)Ile(B16)Des(B30)-Insulin (ligand)	–	0.18	0.23
Glu(A14)Ile(B16)Val(B25)Des(B30)-Insulin (ligand)	–	0.04	–
Glu(A14)Ile(B25)Des(B30)-Insulin (ligand)	–	0.04	–
Glu(A14)Leu(B16)Ala(B25)Des(B30)-Insulin (ligand)	–	0.04	0.01
Glu(A14)Val(B16)Des(B30)-Insulin (ligand)	–	0.32	–
Glu(A14)Val(B16)Ile(B25)Des(B30)-Insulin (ligand)	–	0.01	–
Glu(A14)Val(B16)Val(B25)Des(B30)-Insulin (ligand)	–	0.03	–
Glu(A14)Val(B25)Des(B30)-Insulin (ligand)	–	0.04	–
Gly(A21)Trp(B16)Des(B30)-Insulin (ligand)	–	0.4	0.57
Gly(A21)Trp(B16)His(B25)Des(B30)-Insulin (ligand)	–	0.35	0.4
Gly(A21)Trp(B16)Trp(B25)Des(B30)-Insulin (ligand)	–	0.38	0.43
His(B16)His(B25)Des(B30)-Insulin (ligand)	–	0.1	–
His(B25)Des(B30)-Insulin (ligand)	–	0.31	–
Leu(B16)Des(B30)-Insulin (ligand)	–	0.34	–
Leu(B25)Des(B30)-Insulin (ligand)	–	0.06	–
Val(B16)Des(B30)-Insulin (ligand)	–	0.32	–
Val(B25)Des(B30)-Insulin (ligand)	–	0.06	–
